Experimental findings from patent US20160222086 are described below.

The test system of data set [1] is T1, thrombin-activated 40 K-PEG-[O]-rFVIII.
T1 sequence: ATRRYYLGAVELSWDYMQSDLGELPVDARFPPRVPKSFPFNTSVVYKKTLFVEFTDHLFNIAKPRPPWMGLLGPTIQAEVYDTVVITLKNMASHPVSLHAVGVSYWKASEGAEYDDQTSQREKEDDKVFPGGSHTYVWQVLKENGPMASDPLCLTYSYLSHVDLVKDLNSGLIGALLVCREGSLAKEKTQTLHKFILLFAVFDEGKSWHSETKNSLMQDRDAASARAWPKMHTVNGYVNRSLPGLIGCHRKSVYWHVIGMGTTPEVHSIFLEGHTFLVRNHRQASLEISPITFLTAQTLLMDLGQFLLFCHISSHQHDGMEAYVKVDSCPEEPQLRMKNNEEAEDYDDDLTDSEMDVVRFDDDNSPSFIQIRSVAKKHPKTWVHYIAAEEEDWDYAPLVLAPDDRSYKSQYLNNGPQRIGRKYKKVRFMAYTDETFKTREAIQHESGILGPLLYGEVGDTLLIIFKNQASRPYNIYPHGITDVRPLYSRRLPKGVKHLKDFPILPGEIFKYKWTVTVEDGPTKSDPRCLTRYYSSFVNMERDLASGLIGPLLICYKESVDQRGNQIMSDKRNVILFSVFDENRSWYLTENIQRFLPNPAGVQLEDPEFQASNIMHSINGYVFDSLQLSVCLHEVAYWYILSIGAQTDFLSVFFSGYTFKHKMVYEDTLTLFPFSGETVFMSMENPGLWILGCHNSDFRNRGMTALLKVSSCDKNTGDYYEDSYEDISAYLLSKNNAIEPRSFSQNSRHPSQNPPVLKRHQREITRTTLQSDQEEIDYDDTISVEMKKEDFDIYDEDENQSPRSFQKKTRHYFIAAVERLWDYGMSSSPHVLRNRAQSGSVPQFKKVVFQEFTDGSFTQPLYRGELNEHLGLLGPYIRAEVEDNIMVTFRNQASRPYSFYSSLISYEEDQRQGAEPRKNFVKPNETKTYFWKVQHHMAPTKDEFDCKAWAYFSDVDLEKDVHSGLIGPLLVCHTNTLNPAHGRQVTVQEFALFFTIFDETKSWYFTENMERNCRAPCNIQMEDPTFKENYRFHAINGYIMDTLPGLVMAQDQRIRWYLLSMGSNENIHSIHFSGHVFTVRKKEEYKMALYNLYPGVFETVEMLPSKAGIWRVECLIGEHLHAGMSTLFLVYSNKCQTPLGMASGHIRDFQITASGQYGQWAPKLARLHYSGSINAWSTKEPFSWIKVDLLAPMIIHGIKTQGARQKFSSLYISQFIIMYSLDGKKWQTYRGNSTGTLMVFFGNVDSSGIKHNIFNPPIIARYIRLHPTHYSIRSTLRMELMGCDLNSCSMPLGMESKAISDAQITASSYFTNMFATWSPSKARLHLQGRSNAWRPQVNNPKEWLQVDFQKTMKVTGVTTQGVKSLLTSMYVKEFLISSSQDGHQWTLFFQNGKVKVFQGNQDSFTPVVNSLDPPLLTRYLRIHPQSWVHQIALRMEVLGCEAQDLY

For data set [2], the system named is T2, thrombin-activated 80 K-PEG-[O]-rFVIII.
T2 sequence: T1 sequence

Data set [3] deals with T3, thrombin-activated rFVIII (rFVIIIa), made from the recombinant B-domain truncated Factor VIII N8.
T3 sequence: T1 sequence

For FIXa, the K1/2FIXa in data set [1] came to 0.42 nM; in data set [2], 1.11 nM; in data set [3] it was 0.88 nM. Besides, the “apparent Kd of rFVIIIa-FIXa interaction (K1/2FIXa)” value in data set [1] and in data set [2] was “O-linked glycoPEGylation did not affect the apparent Kd of rFVIIIa-FIXa interaction (K1/2FIXa)” in each case.
